Results published in the DeepSol protein solubility set.

Assay: soluble on expression in E. coli; label from the status in PepcDB or PDB records

Sequence | soluble on expression in E. coli
TKDFIWNLSFNGTHYSNKILNLPEDKRENGIIHGTASLFRLMEGGSIYDLYTYEYAGVNPETGAAQWYMDEKDANGKVTGRTVTEDYTQASKYELGSTLPDFQGGFSTDFAYKGIDLSIATNFQIGGKIYDSMYSSFMHAGSNIGSNWHKDILNAWTPENKNTNVPIMDGAQNSNSQSSRFLINASFFNIRNISLGYTFPKEWMKAISASSARIYVSADNVALFSKRKGMDPRQYAYGYSAANYSAIRTLSFGINLNF | not soluble
MVDQAQDTLRPNNRLSDMQATMEQTQAVENRVLERLNAGKTVRSFLITAVELLTEAVNLLVLQVFRKDDYAVKYAVEPLLDGDGPLGDLSVRLKLIYGLGVINRQEYEDAELLMALREELNHDGNEYAFTDDEILGPFGELHCVAALPPPPQFEPADSSLYAMQIQRYQQAVRSTMVLSLTELISKISLKKAFQK | not soluble
MKEFWVWVEPFDRKIVSVALEAGANAVVIPEKGRVEEVKKVGRITVIAPDGDLKLGEDVVYVLIKGKEDEERAAKYPPNVKVIVETTDWTVIPLENLIAQREELYAVVKNAQEAEVALQTLEKGVKGVVLKSRDINEIKKVGQIVSEHEEKLELVTIKITKILPLGLGDRVCVDTISLLHRGEGMLVGNSSGGMFLVHAETEENPYVAARPFRVNAGAVHMYIRVPNNRTKYLCELKAGDKVMVYDYKGRGRVTYVGRAKVERRPMLLIEGRYENKKLSCILQNAETIRLTKPDGTPISVSELKEGDEVLGYVEEAGRHFGMKVEETIIEK | not soluble
DVKLVESGGGLVKPGRSLKLSCAASGFTFSDYYMFWVRQTPEQRLEWVATISDGGAYTYYPDSVKGRFTISRDNAKNNLYLQMNSLKSEDTGMYYCARDPLEYYGMDYWGQGTSVAVSSAKTTAPSVYPLAPVCGDTTGSSVTLGCLVKGYFPEPVTVTWNSGSLSSGVHTFPAVLQSDLYTLSSSVNVTSSTWPSQSITCNVAHPASSTKVDKKIVPR | soluble
MCLAIPSVVIDIFEEDGEKYALAEYKGVKQKAKLALIEGVEIGDYVLIHTGYALEKMSEDEAKLSLDAWEELFDVLDEMDGVKKENSE | not soluble
MKIGYLGPKATFTEAAAALLFPSQPREPYDTIPDCIDAAAAGEIEAAVVPLENALEGSVNLTLDYLIHEQPLPIIGEIVVPIEQHLMVHPYFTPHWREVKEVYSHSHAIAQCRKFLHTVLKGAKQVPMTSTSAAAKFVSEHPHLPAAAIANRLAAEKYGLVIVQENVHDYDYNHTRFIVVSRRKEPLSPASPLYAGDKTTVVVMLPQDRPGALHQVLSAFAWRRLNLTKIESRPAKTGLGNYFFIIDIDAPMDDVLIPGAIAEIEALGCTVQLLGSYPYYFA | not soluble
MPISRYYDVKRDEKGERYLEPYVTGFLLLRLPLLNKGTAFTEEERRLLGLEGLLPPHVHTLEEQKERVYRRYRLIQSPLEKHIYLRHLQDRNEVLFYALVVDHLEEMLPILYTPTVGEAVREFSHIYRYPRGFTASTKNIDRIDEALQNVPLEDVRLIVATDSSAILGIGDQGYGGMAISIGKLTLYTAAGGVGPDKTLPVELDVGTDREDLLKDPLYLGVRHRRLRGEEYFRFLDRFVEAVRRRYPKALIQWEDFAKETAFQVLERYRKVIPSFNDDIQGTGAVALAGVLSACRLKGERLSDQVVVVYGAGAGGIGVAWALVEGMKREGLSEEEAKARVLVLDSKGLLVEGRSMEDYKRPYAQRPERLWGWRFAGEYPNLLETITNARATVLLGLSGQAGSFTEPVVRAMLANTPRPVIFPLSNPTSATEALPDDLVYWTEGRALVAAGSPFPPVGFKGRTVPIGQGNNAFVFPGLGLGAVLSRAREVTDGMVLEAAYALYDYTREHFPERIYPPVGRLREVSPYVAARVMQRALEEGVAEEARVQGLTLEALLDFVKSRFWEPRYLPYRPAPVI | soluble
MAGGPSALTLIARTSATGAQPLSLRARFPRTRPPMKKIPLAAADPDRLDTWVKYREGLCGECNATCCTLPVEVRIDDLIRMRLVDEFEREEPAKRIAKRLEKDGVIEHFNHKREIFTLTRMANGDCLYLDRKTRLCTIYARRPDTCRNHPRIGPRPGYCAYRPRLEHHHHHH | not soluble
MGYVEIIEQPKQRGMRFRYKCEGRSAGSIPGERSTDTTKTHPTIKINGYTGPGTVRISLVTKDPPHRPHPHELVGKDCRDGFYEAELCPDRCIHSFQNLGIQCVKKRDLEQAISQRIQTNNNPFQVPIEEQRGDYDLNAVRLCFQVTVRDPSGRPLRLPPVLSHPIFDNRAPNTAELKICRVNRNSGSCLGGDEIFLLCDKVQKEDIEVYFTGPGWEARGSFSQADVHRQVAIVFRTPPYADPSLQAPVRVSMQLRRPSDRELSEPMEFQYLPDGSLSSGSSLSSPSAGAAPRVLFGEWLLGEISSGCYEGLQWLDEARTCFRVPWKHFARKDLSEADARIFKAWAVARGRWPPSSRGGGPPPEAETAERAGWKTNFRCALRSTRRFVMLRDNSGDPADQHKVYALSGSLSSDSSLSSPSALSPKPRILPWLVSQLDLGQLEGVAWVNKSRTRFRIPWKHGLRQDAQQEDFGIFQAWAEATGAYVPGRDKPDLPTWKRNFRSALNRKEGLRLAEDRSKDPHDPHKIYEFVNGLEHHHHHH | soluble
MNQIDLNVTCRYAGVFHVEKNGRYSISRTEAADLCQAFNSTLPTMDQMKLALSKGFETCRYGFIEGNVVIPRIHPNAICAANHTGVYILVTSNTSHYDTYCFNASAPPEEDCTSVTDLPNSFDGPVTITIVNRDGTRYSKKGEYRTHQEDIDAS | soluble
MGSDKIHHHHHHLIQYAQAVMRHEAVAAIVAEIVARYQAIADDFELEASIMAAIEEELDQLPKLTFKNNDYLMAGFKARGEKLNAFLMTAVLNHEGIEATYGEPKSLGIVVTDHPNDAEVSRETYRNLATFRRPIGVLVVPGFYGYTSDDDIATFSRGGSDITGAILANGFHADLYENFTDVDGVAAADPRVVANPQMIREMTYREMRELSYGGFGVFHDEAILPAIAGQVPINLKNTNHPAAPGTMIVPEQHFVPKHAITGIVSSQHFGAIYLHRYLLNKEVGFTLKILQVLAHNGISYEHMPSGIDDLTIILDDRQLTEAKRKTICAEIQAAVHPDVLKWIDDYAIIMVVGEGMAQRTGLIQTILQPLATAGVHVSMINEGASQISLMLGTSRESANRAVKTIYNAFFIPINQRLEVH | not soluble
MENRKLAVLIDADNAQSSLIAELLAEVAKYGTAIVKRAYGDWTTTQLKGWKEVLHQYAISPIQQFAYTKGKNSTDSALIIDAMDLLYTGNFDGFCLVSSDSDFTRLATRLREGGLTVIGLGEQSKTPRPFIAACDKFVFTEILRPAPPAKPKPETAATADKPKARSSRTRAKAAPHKEKHPLQDMFTSAIEAVARDSGWAELSAVGSYLAKNDPSFDPRNWGHGRLSQMVKKLDFLTVQESRNGSKLHSEIRLRHDGEAAVAEPAAPVETPQPSPSEEAAPPPRKKRSPRKKISPAGLEHHHHHH | soluble
MSLSIFSHFQERFEATRQEEYSLQEYLDLCKQDKTAYASAAERLLMAIGEPELLDTSVDSRLSRIFSNKVIRRYPAFADFHGMEECIDQIVAFFRHAAQGLEEKKQILYLLGPVGGGKSSLAEKLKQLMEKVPFYAIKGSPVFESPLGLFNPDEDGAILEEDYGIPRRYLRSIMSPWATKRLNEFGGDISQFRVVKLYPSILNQIAIAKTEPGDENNQDISALVGKVDIRKLEEYPQNDADAYSYSGALCRANQGLMEFVEMFKAPIKVLHPLLTATQEGNYNSTEGLGALPYSGIILAHSNESEWHSFRNNKNNEAFIDRIYIVKVPYCLRVADEIKIYDKLLVNSSLAHAHCAPDTLKMLSQFSVLSRLKEPENSNIYSKMRVYDGENLKDTDPKAKSIQEYRDSAGVDEGMAGLSTRFAFKILSKVFNFDPHEVAANPVHLLYVLEQQIEQEQFQPETRERYLRFIKEYLAPRYVEFIGKEIQTAYLESYSEYGQNIFDRYVLYADFWIQDQEYRDPETGEILNRAALNEELEKIEKPAGISNPKDFRNEIVNFVLRARAGNNGKNPSWLSYEKLRVVIEKKMFSNTEDLLPVISFNAKASKEDQQKHNDFVKRMVERGYTEKQVRLLSEWYMRVRKSQEGHHHHHH | soluble
FRFGLPIFHTIRWLVNLSKGKLEEPRNREGRPVSKNKKGKIKQPYRFFGEIFESMDQLTETLRRDKRNREKIQATREEWIAGLSHDLKTPLSSIYGYSMMLESKQYDWSPEEGEEMGQVVREKSEYMSKLIEDLNLTYRLKNDALPIERKLTSLIPFFKNVIEDFKKNPFSEGYDISFVSKEEHIEFALDEAWFRRILENLLGNAVKHNGKGTEIQVILEQTKNHISLKVKDNGKGMDEETITHLFNRYYRGTNTKDSTAGTGLGLAIAKELVHLHNGTIHVNSRTNIGTVITILFK | not soluble
